Assay: label from the status in PepcDB records
For “LEPRKKAEEALRKSEERFAKAFRMAPVPSLVLYGDDLQALDINQAFSETFGYQAEELLGESTVACGLWQDGGAERLGELLAQSGSVRNVQLRLQHKDRNGLDCLVSAEAVSLNEQDCVLVALLDIS”, the protein production was “not failed”.
With “LETSWIKPGQASWEWWNDAAPYGPDVNFVSGYNLETYKYYIDFASKYGIRYIIMDEGWAKSTRDPYTPNAKVDVHELIRYAEKKNVGIVLWLTWLTVENNMDLFKTFSEWGVKGVKIDFMDRSDQWMMNFYERVAAEAAKYKLFVDFHGSVSPKGLEYKYPNVLSYEGVRGMEQMGGATPDNSIFMPFMRNAVGAMD” the protein production was “not failed”.
For “LFQRVLYATDFSENATRAFDAFQYLRHATQEATLVHVESPKDATSEADPAEQLASLADTLSQWDIETNVEVRRGDPAEEILDVEAAVTPTTTLVGSRGQSRMRRLLLGSVSEDIIAQATGNVYLVPPP”, the protein production was “failed”.
In the case of “LGLVCLTVGPEVRFRTVTLSRYRALSPAEREAKLLDLYSSNIKTLRGAADYCAAHDIRLYRLSSSLFPMLDLAGDDTGAAVLTHLAPQLLEAGHAFTDAGVRLLMHPEQFIVLNSDRPEVRESSVRAMSAHARVMDGLGLARTPWNLLLLHGGKGGRGAELAALIPDLPDPVRLRLGLENDERAYSPAELLPICEATGTPLVFDAHHHVVHDKLPDQEDPSVREWVLRARATWQPPEWQVVHLSNGIEGPQDRRHSHLIADFPSAYADVPWIEVEAKGKEEAIAALRLMAPFKKD”, the protein production is reported as “failed”.
In the case of “LIIFCLLSVVAAAAYFSFSHWAIRHETLTFFDESRGRPVAIDLAVRRDAEMKAEAGMVTLPVAVVSHGNTVKNTEYSFLANVLAARGYLVASIQHDLPDDKPLMTVAGSLYVGRLAVYERGEKNIFFALKELKKLEPNADYDHLTLVGHSNGGDISMFFAQQHPEMVRRVVTLD”, the protein production is reported as “failed”.
In the case of “LKVLTNKASVMLFMKGNKQEAKCGFSKQILEILNSTGVEYETFDILEDEEVRQGLKTFSNWPTYPQLYVRGDLVGGLDIVKELKDNGELLPILKGE”, the protein production is reported as “not failed”.
In the case of “LLGELNEWLQSCRSLEELFAMVSRFMEHILPDAEGSLYVYSNSRDVLDGSAGWNGGAFKDHIHPEACWGLRRGRSYEYGASEVDFVCDHAEPHDGRPYFCFPVLAHGETVGLMHLRAQPGAEAEFSASKRLAQMCAEQISMAIANVRMRDQLHDQ”, the protein production is reported as “failed”.
With “LLHRTFMADAGWSDLKAFEVILRHIPHDAALHAANSTPVRYLQLFEHAHYAGGEWSNRGTNGIEGATSTAMGFSEVYSGTTLLITGDLSFMYDSNALWMPYVNGRIRVIVMRNGGGGIFRFIPGPDSLKELETCFETPLEVPVREMAGAYGWRYMKAVSAEELETVLPSFFASGDRAVLLEVETPRFENAPVLKSYFTYISGESYPVNR” the protein production was “failed”.
For “LLKVEFYKLKRSKVFYLFIVLMIMQSMFVLIPIKENYLLNKTGQDMFLQSFPLQEFIFNTLIIGAFGYFIGKEFHSGYIKNLIVSGHKRINIVLSKAIVFCIGVAIISFIFPICTFVINSIRNGYGEKYSVEYMFEVSVIMLFVYLAIGSIVTMISFITKNIAITIALFYLI”, the protein production was “failed”.
In the case of “LLTSQIVDQYAEHIFYNSGAVGMALVVIDNNQVVNRSFGETQPGNNIRPRPDSLIRIASITKLMTSEIMVKLADDGIVKLTDPLKKYAPKGVNVPSYSAKQPIRLLHLASHTSGLPREQPGGPQKRPVFTWPTKDNRWQWLKLAKVTVPPGVKAAYSNLAYDLLADALSRAAGKPYAHLLRDKITAPLGMKNTTLTPTAEQCKRLMIGVGSSRCGNTVAAAGSGGIYSTPEDMQHWMQQFLASDNSAPKRSAKREQALYFQRGDLVSLKGMDVAGQADALGLGWVYMAPKADLPGIMQKTGGGGGFITYMAMVPEKNIGVFVVVTRSQLTKFSNMSDGVNQLVAELVK”, the protein production is reported as “not failed”.
In the case of “LPPKKFGNPGERLRKKKWDLSELPKFEKNFYVEHPEVARLTPYEVDELRRKKEITVRGGDVCPKPVFAFHHANFPQYVMDVLMDQHFTEPTPIQCQGFPLALSGRDMVGIAQTGSGKTLAYLLPAIVHINHQPYLERGDGPICLVLAPTRELAQQVQQVADDYGKCSRLKSTCIYGGAPKGPQIRDLERGVEICIATPGRLIDFLESGKTNLRRCTYLVLDEADRMLDMGFEPQIRKIVDQIRPDRQTLMWSATWPKEVRQLAEDFLRDYTQINVGNLELSANHNILQIVDVCMESEKDHKLIQLMEEIMAEKENKTIIFVETK”, the protein production is reported as “failed”.
With “LQVGKVYIFGSGHVARALVPILNYLSFYCVVVDDRPEFLTAQAFPQAEELRVIPLENLAAFIEITADDYGIVITRGHNFDFIVAKQLLETPAKYIGVMGSKHKIASQVRRLKEVGYTMTEIERIFMPIGLDIAAETPEELAISIAGELIQQRYQ” the protein production was “failed”.
For “LRARTYGEGGFRVERVLEERPAFTRVQFSYLSDGLRVHGFANLPKGRGPFPVVVVLHGYVEPSRYRLLAYTTPYADFLAERGYLVLHPNFRGHPPSEGAPAQGLRHVYAVDVLNLLAEVRRGAFPQADPAR”, the protein production was “failed”.
In the case of “LRKMIALIHKDYAKNLRLETLASVFNYNRAYLGKLFKNYTGEYFNTYLDKVRIENGKRLLQKGYKVYEVAEKIGYANVDYFHRKFKKYVGVSPSTFRKR”, the protein production is reported as “not failed”.
With “LRKMIALIHKDYAKNLRLETLASVFNYNRAYLGKLFKNYTGEYFNTYLDKVRIENGKRLLQKGYKVYEVAEKIGYANVDYFHRKFKKYVGVSPSTFRKRHDHLQVYHD” the protein production was “failed”.
For “LRQSQQMLQLVMDTIPHSVFWKDRNSVFLGCNRNFAIMVGYEHPENLIGKTDYDFLPDPRNADLYRQCDARIIETNNPEYHIIEPMLAPDGQQIWLETNKVPLHDPEGNVVGVLGTFEDITERKQVQEA”, the protein production was “failed”.
In the case of “LSANYAENLQAQQRSAQRLEHQAWLRTGQTQLAQQVLGQLTLPMLGENILRFFASYLGSVVGAVYVRDEHGRLVRVACYGLSTEEQAREQIESDHHGLLAQAVREGRLLRLEELPEDFYRLSSGLGSGLPRSALLMPATEDGQINGVIELGFLRPLQERDEELLERVGGNLGMSIESA”, the protein production is reported as “failed”.
For “LSDKLMERLKERAEGIFVSGPPGSGKSTFVAALAEFYRSQGKIVKTMESPRDLQVSKEITQYAPLEGDMEKTCDILLLVRPDYTIYDEVRKTRDFEIFADMRMAGVGMVGVVHASKPIDAIQRLIGRVELGVIPQVVDTVIFIKDGKIQKVYEIDFTVKVPYG”, the protein production was “failed”.
With “LSEVEFVEFQKENFSLLIDARSPREFLHSHLIGALNFYALNDEEYQEIGTIYKKNQALAKAMGASYICQNTTKHILEITQNFRIGEKVGIYCSRGGLRSKSIAVILSELGFRVVRLKGGFKAYRTFVTHYFEN” the protein production was “failed”.
For “LSIPEDYQARLQPNRVEGSYPLVRMEFTGATVDAPLMSQISRKYNIDVSILSSDLDYAGGVKFGMMVAELFGNEQDDSAAIEYLREHNVKVEVLGYVL”, the protein production was “not failed”.
For “LSNLETAKAMIAAYNAQDVDTYVSYMTDDACEANYRGDVVREGKEGTRSGLAAAFARWPQNHAEIKDAQQVGTYVLMREHVTRGPATDGSPLVEPFDVVAVYSFEGDKCSRVEFIR”, the protein production was “not failed”.
In the case of “LSPPRGLVAVRTPRGVLLHWDPPELVPKRLDGYVLEGRQGSQGWEVLDPAVAGTETELLVPGLIKDVLYEFRLVAFAGSFVSDPSNTANVSTSGL”, the protein production is reported as “not failed”.
For “LTFETLAREWFAYNSPRWAESTTYKAKLYMENDLIPGIGARPVKALTRPDLVDLVRKVEARGTLNAAGKIRQWLHQIFRYGLAKGVVESNPATDLDVVAAP”, the protein production was “failed”.
For “MAAAAATAVGPGAGSAGVAGPGGAGPCATVSVFPGARLLTIGDANGEIQRHAEQQALRLEVRAGPDAAGIALYSHEDVCVFKCSVSRETECSRVGRQSFIITLGCNSVLIQFATPHDFCSFYNILKTCRGHTLERSVFSERTEESSAVQYFQFYGYLSQQQNMMQDYVRTGTYQRAILQNHTDFKDKIVLDVGCGSGILSFFAAQAGARKIYAVEASTMAQHAEVLVKSNNLTDRIVVIPGKVEEVSLPEQVDIIISEPMGYMLFNERMLESYLHAKKYLKPSGNMFPTIGDVHLAPFTDEQLYMEQFTKANFWYQPSFHGVDLSALRGAAVDEYFRQPVVDTFDIRILMAKSVKYTVNFLEAKEGDLHRIEIPFKFHMLHSGLVHGLAFWFDVAFIGSIMTVWLSTAPTEPLTHWYQVRCLFQSPLFAKAGDTLSGTCLLIANKRQSYDISIVAQVDQTGSKSSNLLDLKNPFFRYTGTTPSPPPGSHYTSPSENMWNTGSTYNLSSGVAVAGMPTAYDLSSVIAGGSSVGHNNLIPLANTGIVNHTHSRMGSIMSTGIVQGNRVAGPWAGDLPPGLRTRSSYQWGPGRLRGHAGSSVPMTCPTGSSGAQGGGGSSSAHYAVNNQFTMGGPAISMASPMSIPTNTMHYGS”, the protein production was “failed”.
For “MAAAPWYIRQRDTDLLGKFKFIQNQEDGRLREATNGTVNSRWSLGVSIEPRNDARNRYVNIMPYERNRVHLKTLSGNDYINASYVKVNVPGQSIEPGYYIATQGPTRKTWDQFWQMCYHNCPLDNIVIVMVTPLVEYNREKCYQYWPRGGVDDTVRIASKWESPGGANDMTQFPSDLKIEFVNVHKVKDYYTVTDIKLTPTDPLVGPVKTVHHFYFDLWKDMNKPEEVVPIMELCAHSHSLNSRGNPIIVHCSAGVGRTGTFIALDHLMHDTLDFKNITERSRHSDRATEEYTRDLIEQIVLQLRSQRMKMVQTKDQFLFIYHAAKYLNSLSVNQ”, the protein production was “failed”.
With “MAAAVSTVGAINRAPLSLNGSGSGAVSAPASTFLGKKVVTVSRFAQSNKKSNGSFKVLAVKEDKQTDGDRWRGLAYDTSDDQQDITRGKGMVDSVFQAPMGTGTHHAVLSSYEYVSQGLRQYNLDNMMDGFYIAPAFMDKLVVHITKNFLTLPNIKVPLILGIWGGKGQGKSFQCELVMAKMGINPIMMSAGELESGNAGEPAKLIRQRYREAADLIKKGKMCCLFINDLDAGAGRMGGTTQYTVNNQMVNATLMNIADNPTNVQLPGMYNKEENARVPIICTGNDFSTLYAPLIRDGRMEKFYWAPTREDRIGVCKGIFRTDKIKDEDIVTLVDQFPGQSIDFFGALRARVYDDEVRKFVESLGVEKIGKRLVNSREGPPVFEQPEMTYEKLMEYGNMLVMEQENVKRVQLAETYLSQAALGDANADAIGRGTFYGKGAQQVNLPVPEGCTDPVAENFDPTARSDDGTCVYNF” the protein production was “failed”.
For “MAADYTHFIHRQHAPPEVCLSAFSGHNDALDFPDSEGSPVSQSLIAALQNPALFPHPVEGFQVIETHISWVLLTGPFAYKVKKPVNFGFLDFTSLDAREHFCGEELRLNQRLTEDLYLEVLPITGSAEAPVLGGDGPAIEYVLKMRQFPQSQLLSTLQANSELTTAHIDEMARQIAHFHLNAPKVPAEHEAGTPESVMAPVRQNFEQIRPFLSDKADLQQLEALEAWAETSFERLKPLLAQRKSEGFIRECHGDIHLGNATLIDGKVVIFDCIEFNEPFRFTDVYADTGFLAMDLEDRGLKSLARRFISQYLELTGDYQGLELLNFYKAYRALVRAKVSLFSMPAEATPVQRATTLRQYRNYANLAESYSTIPSRFLAITSGISAVGKSRVAMRLVEALGAVRLRSDVERKRLFGEQQVPNDPHAGIYSSEASSATYARLHEIAETILRAGFPVVIDATYLKRAQRDAAAKVAEATGTPCLIIDCNAPEAVVASWLAQRQADQNDPSDATLEVIANQQATREALTDEELLRSKRIETNESGSLDALVANIRQRLPGLLEHHHHHH”, the protein production was “failed”.
In the case of “MAAFPNLNSGSGLKKLDEHLLTRSYITGYQASKDDITVFTALSKPPTSEFVNVSRWFNHIDALLRISGVSAEGSGVIVEGSSPITEEAVATPPAADSKDTAAEEEDDDDVDLFGEETEEEKKAAEERAASVKASTKKKESGKSSVLMDIKPWDDETDMKKLEEAVRSIQMEGLFWGASKLVPVGYGIKKLHIMCTIVDDLVSIDTMIEEQLTVEPINEYVQSCDIVAFNKI”, the protein production is reported as “failed”.
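Further: failed if final PepcDB status was selected cloned or expressed and not failed if soluble or beyond.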
